Where two headings read alike, the source gives them in different places.
What was measured:
Conditions in all cases: remark: other sources report otherwise
[1] = molecular target: T1, sCoV2-RBD (Fc-tagged RBD of SARS-CoV-2 S protein) (SARS-CoV-2; human), P0DTC2
[2] = molecular target: T1, sCoV2-RBD (Fc-tagged RBD of SARS-CoV-2 …); assay: ELISA titration on coated sCoV2-RBD
[3] = molecular target: T1, sCoV2-RBD (Fc-tagged RBD of SARS-CoV-2 …); remark: listed apart in the source
[4] = molecular target: T1, sCoV2-RBD (Fc-tagged RBD of SARS-CoV-2 …); assay: BLI (Octet) blocking of ACE2 binding to captured sCoV2-RBD
[5] = molecular target: trimeric prefusion S protein of SARS-CoV-2 (SARS-CoV-2), P0DTC2

B1: CoV2-14 (antibody, V domains shown)
VH: EVQLQQSGPGLVKPSQTLSLTCAISGDSVSSNSAAWNWIRQSPSRGLEWLGRTYYRSKWYNDYAVSVKSRITINPDTSKNQFSLQLNSVTPEDTAVYYCAREEQQLVHDYYYYGMDVWGQGTMVTVSS
VL: QAVVTQPASVSGSPGQSITISCTGTSSDIGAYNYISWYQQHPGKAPKLIIYEVSNRPSGISYRFSGSKSGNTASLTISGLQAEDEANYYCSSYAGSISFGGGTKVTVL
EC50 [1]: 0.58 nM | EC50 [2]: 0.58 nM | EC50 (read off the curve) [3]: 0.5 nM | IC50 [4]: 3.14 µg/mL | Kd [5]: 0.22 nM

— patent US20230399384A1
